# Legend:
# [1] = tested on: oligopeptide linker containing the urokinase-specific cleavage sequence SGRSA (SEQ ID NO: 2)
# [2] = tested on: urokinase consensus sequence linker DGGSGRSAGGGC (SEQ ID NO: 68) linking Fe/Fe3O4 nanoplatforms
# [3] = tested on: T1, GAGSGRSAGA oligopeptide sequence (SEQ ID NO: 66, deleted at the N-terminus by 1 residue and the C-terminus by 2 residues) linking Fe/Fe3O4/ASOX/stealth-nanoparticles into oligomers
# T1 sequence: GAGSGRSAGA
# [4] = tested on: T2, GAGSGRSAGAG linkage (SEQ ID NO: 66, deleted by 1 residue at each of the N-terminus and C-terminus) between nanoparticle and non-metalated TCPP
# T2 sequence: GAGSGRSAGAG
# [5] = tested on: T3, cleavage sequence DGGGSGRSAGGGD (SEQ ID NO: 65) coupled to TCPP and to stealth-coated Fe/Fe3O4 nanoparticles
# T3 sequence: DGGGSGRSAGGGD
# [6] = tested on: T4, cleavage sequence for urokinase DGAGSGRSAGAGD (SEQ ID NO: 66) linking porphyrin-labeled stealth coated Fe/Fe3O4 nanoparticles
# T4 sequence: DGAGSGRSAGAGD
# urokinase in rat urine, sequence (chain, as listed by the source): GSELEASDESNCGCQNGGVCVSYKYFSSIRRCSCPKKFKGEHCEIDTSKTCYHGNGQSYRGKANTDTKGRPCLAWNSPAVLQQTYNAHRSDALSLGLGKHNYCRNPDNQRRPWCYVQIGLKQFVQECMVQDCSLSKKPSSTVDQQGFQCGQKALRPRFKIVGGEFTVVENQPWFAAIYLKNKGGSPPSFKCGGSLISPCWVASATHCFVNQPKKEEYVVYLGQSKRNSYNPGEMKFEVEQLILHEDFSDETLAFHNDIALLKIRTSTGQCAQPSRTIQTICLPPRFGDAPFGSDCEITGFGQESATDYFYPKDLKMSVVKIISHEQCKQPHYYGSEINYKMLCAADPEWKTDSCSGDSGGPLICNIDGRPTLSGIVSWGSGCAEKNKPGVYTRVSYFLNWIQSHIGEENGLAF
# urokinase in canine urine, sequence (chain, as listed by the source): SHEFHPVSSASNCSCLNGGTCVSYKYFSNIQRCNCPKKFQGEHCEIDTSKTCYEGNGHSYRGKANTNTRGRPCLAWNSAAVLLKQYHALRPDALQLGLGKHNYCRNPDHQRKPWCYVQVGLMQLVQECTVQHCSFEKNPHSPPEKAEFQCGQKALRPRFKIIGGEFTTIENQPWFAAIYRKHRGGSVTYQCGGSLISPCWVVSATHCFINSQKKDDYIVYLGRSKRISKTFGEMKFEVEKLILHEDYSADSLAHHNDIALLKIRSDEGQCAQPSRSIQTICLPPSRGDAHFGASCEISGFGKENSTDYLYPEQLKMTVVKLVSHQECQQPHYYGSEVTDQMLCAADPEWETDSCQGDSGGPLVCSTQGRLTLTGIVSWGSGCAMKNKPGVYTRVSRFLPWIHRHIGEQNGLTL
substance,measurement,setting,value
urokinase in canine urine,"fluorescence enhancement over time, Sample B (dog undergoing chemotherapy)",[1],"had a detectable enhancement in fluorescence than the control (Sample A), but was still much lower than Sample C"
same,"fluorescence enhancement over time, Sample C (dog just diagnosed with cancer)",[1],showed a rapid increase in fluorescence
urokinase in rat urine,"UV/Vis backscattering spectrum of the nanoparticle-dimer over 120 minutes, rat urine (estimated urokinase 5×10^-10 M)",[2],The change in the optical properties is clearly discernible upon the cleavage of the oligopeptides-linker by urokinase
same,"luminescence of TCPP released from the nanoplatform, 36 day urine",[1],the luminescence from TCPP increased steadily over time for the 36 day urine
same,"luminescence of TCPP released from the nanoplatform, control (5 day urine)",[1],The control (5 day urine) did not demonstrate a significant increase in luminescence
"urokinase (Sigma Aldrich, St. Louis, Mo.)",T1 of H2O 10 minutes after adding 1×10^-14 mol urokinase per ml (3.004 seconds before),[3],"After 10 minutes, T1 had decreased to 2.003 seconds"
same,T2 of H2O 10 minutes after adding 1×10^-14 mol urokinase per ml (0.07579 seconds before),[3],T2 had increased to 0.1334 seconds
same,"fluorescence lifetime τ1, Fe/Fe3O4-linkage-TCPP plus urokinase (1×10^-7 M)",[4],1.39 ns
same,"fluorescence lifetime τ1, Fe/Fe3O4/ASOX/Au-linkage-TCPP plus urokinase (1×10^-7 M)",[4],1.47 ns
same,"fluorescence lifetime τ2, Fe/Fe3O4-linkage-TCPP plus urokinase (1×10^-7 M)",[4],30 ns
same,"fluorescence lifetime τ2, Fe/Fe3O4/ASOX/Au-linkage-TCPP plus urokinase (1×10^-7 M)",[4],29.3 ns
same,"overall fluorescence enhancement, 10 min. after urokinase was added",[4],The overall fluorescence enhancement of this system was approx. 75 (10 min. after urokinase was added)
same,"relative contribution f1, Fe/Fe3O4-linkage-TCPP plus urokinase (1×10^-7 M)",[4],78
same,"relative contribution f1, Fe/Fe3O4/ASOX/Au-linkage-TCPP plus urokinase (1×10^-7 M)",[4],80
same,"relative contribution f2, Fe/Fe3O4-linkage-TCPP plus urokinase (1×10^-7 M)",[4],22
same,"relative contribution f2, Fe/Fe3O4/ASOX/Au-linkage-TCPP plus urokinase (1×10^-7 M)",[4],20
same,"optical extinction (absorption + scattering) over 40 min, urokinase 1×10^-10 M",[5],the observable change of the extinction is caused by the change in scattering once the oligopeptide-tether is cleaved by the enzyme
same,signal intensity at 440 nm divided by signal intensity at 600 nm vs. time,[5],a linear slope has been obtained
same,r2/r1 (MRI relaxivity ratio) at t = 0 min,[6],-27.6
same,r2/r1 (MRI relaxivity ratio) at t = 5 min,[6],-21.9
same,r2/r1 (MRI relaxivity ratio) at t = 10 min,[6],-19.6
same,r2/r1 (MRI relaxivity ratio) at t = 15 min,[6],-16.8
same,r2/r1 (MRI relaxivity ratio) at t = 20 min,[6],-16.5
same,r2/r1 (MRI relaxivity ratio) at t = 25 min,[6],-15.8
same,r2/r1 (MRI relaxivity ratio) at t = 30 min,[6],-15.3
same,r2/r1 (MRI relaxivity ratio) at t = 40 min,[6],-14.8
same,r2/r1 (MRI relaxivity ratio) at t = 50 min,[6],-14.1
same,r2/r1 (MRI relaxivity ratio) at t = 60 min,[6],-13.5
same,T1 relaxivity r1 after protease cleavage of the linker,[1],r1 increased slightly to 180±20 mM s^-1
same,T2 relaxivity r2 after protease cleavage of the linker,[1],"r2 increased to -2,350±250 mM s^-1"

# Reference: patent publication US20120157824
